# Laboratory results: article PMC4889239
# Molecular target: ataxia-telangiectasia mutated (ATM) kinase, full-length human (human) (UniProt Q13315)
# Assay: negative-stain single-particle electron microscopy
# Conditions: remark: other sources report otherwise
substance,measurement,value
"ataxia-telangiectasia mutated (ATM) kinase, full-length human, Q13315 1-3056",percent of the particles that are dimers (% of the particles),60
